Test results reported in the supplement of paper PMC9732359.
± gives the uncertainty stated by the source.

Assay: protein stability index of a GFP-peptide fusion (yeast GPS) (PSI 1-4); higher = more stable; sorted into four equal gates, so the index is relative within each strain
Procedure, shortened: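 Plasmids isolated from each sorting gate were PCR-amplified and Illumina-sequenced, and barcodes assigned the reads to strains. The gates, four of equal size, were set by GFP/Cherry fluorescence ratio on mid-log cultures in leucine-free medium. These cultures were yeast carrying a pooled library of tiled 17-residue yeast protein peptides fused downstream of GFP on a plasmid that also expresses Cherry. The protein stability index is the sum of every gate's read frequency times its gate number.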

| Sequence | protein stability index (pdr5∆) | protein stability index (san1∆) | protein stability index (ubr1∆) | protein stability index (doa10∆) |
| --- | --- | --- | --- | --- |
| TFKDGVILGADSRTTTG [PRE3] | 2.8 ± 0.12 | 2.69 ± 0.19 | 2.59 ± 0.14 | – |
| TFLVSNDDEVSQFCYVS [RPN14] | 2.55 ± 0.23 | 2.28 ± 0.13 | – | 2 ± 0.13 |
| TFNSKPVRTIVPISTSQ [SIR4] | 2.46 ± 0.037 | 2.42 ± 0.039 | 2.35 ± 0.028 | 2.32 ± 0.037 |
| TFPVGRVHRLLRRGNYA [HTA1] | 2.86 ± 0.14 | 2.5 ± 0.087 | 2.27 ± 0.12 | 2.38 ± 0.13 |
| TFRIFHNHDTGCDENDS [YDL088C/ASM4] | 3.09 ± 0.14 | 3.27 ± 0.1 | 3.11 ± 0.1 | 2.92 ± 0.1 |
| TFTQLVSSSLYERRFGP [PUP3] | 2.94 ± 0.16 | 2.73 ± 0.12 | 2.94 ± 0.092 | 2.79 ± 0.12 |
| TGEKPIITGSTSTSSSN [MED8] | 2.52 ± 0.04 | 2.57 ± 0.044 | 2.37 ± 0.033 | 2.79 ± 0.048 |
| TGEWFSSYEEFLERFDF [ITC1] | 1.99 ± 0.06 | 2.09 ± 0.12 | 2 ± 0.15 | 2.99 ± 0.098 |
| TGGTRTKTPGPGGQAAL [RPS14A] | 3.11 ± 0.036 | 3.05 ± 0.034 | 3.149 ± 0.028 | 3.24 ± 0.04 |
| TGNNNNIATQQNMQQSL [GAL11] | 2.49 ± 0.077 | 2.55 ± 0.11 | 2.59 ± 0.052 | 2.06 ± 0.048 |
| TGWITQSTPVLLNHGER [RPN1] | 2.23 ± 0.044 | 1.88 ± 0.056 | 2.53 ± 0.037 | 2.61 ± 0.061 |
| THFLLNIYDQLRNKLIE [RRP6] | 2.69 ± 0.062 | 2.38 ± 0.051 | 2.8 ± 0.033 | 2.62 ± 0.044 |
| THIAESAKEIAKASGCD [MCD1] | 3.4 ± 0.19 | 3.15 ± 0.049 | 3.34 ± 0.075 | 3.16 ± 0.14 |
| THIPQTNLKNHPAYLFK [YLR018C/POM34] | 2.83 ± 0.04 | 2.64 ± 0.054 | 2.75 ± 0.029 | 2.84 ± 0.059 |
| THRNKDGTGVRVIVAGT [FAS1] | 1.59 ± 0.082 | 1.62 ± 0.21 | 1.6 ± 0.15 | 2.16 ± 0.26 |
| TIGAIFLNHAFDYMNRY [CDC53] | 2.1 ± 0.066 | 1.78 ± 0.076 | 1.89 ± 0.046 | 2.04 ± 0.065 |
| TINISLSFSWAILLIIN [NUT1] | 1.61 ± 0.054 | 1.93 ± 0.078 | 2.43 ± 0.044 | 1.35 ± 0.06 |
| TINLDRFMKGRRSKQLI [RPC82] | 2.64 ± 0.078 | 1.79 ± 0.17 | 2.74 ± 0.078 | 2.09 ± 0.1 |
| TIQSDLNLSLHKLDLAK [SMC2] | 2.79 ± 0.035 | 3.01 ± 0.038 | 2.828 ± 0.028 | 2.81 ± 0.049 |
| TIQYDPPETKLPYPTYW [SNF5] | 2.93 ± 0.042 | 2.98 ± 0.039 | 2.94 ± 0.039 | 3.02 ± 0.049 |
| TISEKEQDILDLIAEQV [SSN2] | 3.25 ± 0.15 | 3.05 ± 0.12 | 2.97 ± 0.13 | 3.08 ± 0.14 |
| TIVLSLNVKCTRNPDAP [RPC40] | 2.14 ± 0.18 | 2.91 ± 0.13 | – | 1.66 ± 0.091 |
| TKDLLSKSPSEWQDIIH [CSE2] | 2.99 ± 0.077 | 3.07 ± 0.075 | 3.17 ± 0.049 | 3.1 ± 0.082 |
| TKFKVRGSSSLYTLVIN [RPL38] | 1.32 ± 0.09 | 1.55 ± 0.13 | 2.13 ± 0.09 | 2.08 ± 0.074 |
| TKFLAKNGVIPEESKGS [SWP82] | 3.16 ± 0.11 | 2.98 ± 0.15 | 3.45 ± 0.13 | 3.19 ± 0.096 |
| TKIFNSVAEVFQKAQGS [YCG1] | 1.55 ± 0.23 | – | 1.5 ± 0.07 | 1.89 ± 0.12 |
